Test results from US20140072613A1, “Compositions and Methods for Treating Cutaneous Scarring” (priority 2012, published 2014).

Tests used:
Assay in all cases: biochemical
Assay type in all cases: biochemical
266 human kinases [1] = target: T1, 266 human kinases (Homo sapiens, UniProt O00141); details: SGK(h); 100 μM
T1 sequence (O00141 1-431): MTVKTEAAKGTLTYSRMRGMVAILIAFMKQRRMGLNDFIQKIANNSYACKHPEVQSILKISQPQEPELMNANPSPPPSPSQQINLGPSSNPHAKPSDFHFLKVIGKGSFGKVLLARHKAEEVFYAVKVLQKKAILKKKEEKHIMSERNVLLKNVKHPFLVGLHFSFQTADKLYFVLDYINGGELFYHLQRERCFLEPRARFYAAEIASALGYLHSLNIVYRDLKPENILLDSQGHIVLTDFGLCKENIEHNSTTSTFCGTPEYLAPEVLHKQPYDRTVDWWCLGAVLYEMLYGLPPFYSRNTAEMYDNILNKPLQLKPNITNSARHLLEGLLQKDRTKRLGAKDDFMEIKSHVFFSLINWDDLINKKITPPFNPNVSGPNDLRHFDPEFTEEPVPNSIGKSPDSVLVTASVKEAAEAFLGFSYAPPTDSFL
Outline: (§1)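 A filter-capture radiometric assay: phosphorylated cationic substrate binds an anionic membrane and is scintillation-counted, with values referenced to full-activity control.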

266 human kinases [2] = target: 266 human kinases (Homo sapiens, UniProt P04049); details: c-RAF(h); 100 μM
Outline: as §1

266 human kinases [3] = target: 266 human kinases (Homo sapiens, UniProt P10721, V560G); details: cKit(V560G)(h); 100 μM
Outline: as §1

266 human kinases [4] = target: 266 human kinases (Homo sapiens, UniProt P16234, D842V); details: PDGFRα(D842V)(h); 100 μM
Sequence of 266 human kinases (Homo sapiens, UniProt P16234, D842V) (P16234 24-1089 D842V): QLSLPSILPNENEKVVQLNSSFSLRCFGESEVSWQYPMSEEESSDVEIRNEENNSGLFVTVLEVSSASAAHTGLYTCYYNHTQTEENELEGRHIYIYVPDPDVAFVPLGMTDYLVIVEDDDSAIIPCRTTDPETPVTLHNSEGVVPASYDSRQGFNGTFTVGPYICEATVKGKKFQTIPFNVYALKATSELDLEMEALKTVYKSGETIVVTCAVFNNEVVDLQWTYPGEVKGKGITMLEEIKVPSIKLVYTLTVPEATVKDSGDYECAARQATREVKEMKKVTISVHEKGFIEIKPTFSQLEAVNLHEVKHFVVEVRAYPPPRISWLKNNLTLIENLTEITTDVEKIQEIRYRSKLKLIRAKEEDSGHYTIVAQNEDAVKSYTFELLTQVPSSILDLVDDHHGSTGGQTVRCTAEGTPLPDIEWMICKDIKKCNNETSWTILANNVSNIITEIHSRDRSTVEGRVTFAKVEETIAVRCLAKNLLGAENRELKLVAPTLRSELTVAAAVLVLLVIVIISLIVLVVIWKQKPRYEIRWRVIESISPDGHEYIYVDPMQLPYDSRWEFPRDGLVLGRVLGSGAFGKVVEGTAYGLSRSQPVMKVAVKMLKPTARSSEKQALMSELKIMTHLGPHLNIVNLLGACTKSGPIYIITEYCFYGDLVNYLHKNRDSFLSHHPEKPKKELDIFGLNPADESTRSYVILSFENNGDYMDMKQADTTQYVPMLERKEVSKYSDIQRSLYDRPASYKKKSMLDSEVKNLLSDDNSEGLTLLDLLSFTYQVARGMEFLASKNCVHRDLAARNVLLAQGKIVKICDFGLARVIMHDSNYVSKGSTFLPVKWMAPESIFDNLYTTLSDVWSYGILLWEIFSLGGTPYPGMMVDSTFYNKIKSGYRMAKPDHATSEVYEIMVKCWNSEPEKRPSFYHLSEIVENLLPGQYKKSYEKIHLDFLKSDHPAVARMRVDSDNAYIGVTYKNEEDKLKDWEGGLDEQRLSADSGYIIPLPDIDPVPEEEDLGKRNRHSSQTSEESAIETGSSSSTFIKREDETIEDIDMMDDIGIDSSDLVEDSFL
Outline: as §1

266 human kinases [5] = target: 266 human kinases (Homo sapiens, UniProt P28482); details: MAPK2(h); 100 μM
Sequence of 266 human kinases (Homo sapiens, UniProt P28482) (P28482 whole entry): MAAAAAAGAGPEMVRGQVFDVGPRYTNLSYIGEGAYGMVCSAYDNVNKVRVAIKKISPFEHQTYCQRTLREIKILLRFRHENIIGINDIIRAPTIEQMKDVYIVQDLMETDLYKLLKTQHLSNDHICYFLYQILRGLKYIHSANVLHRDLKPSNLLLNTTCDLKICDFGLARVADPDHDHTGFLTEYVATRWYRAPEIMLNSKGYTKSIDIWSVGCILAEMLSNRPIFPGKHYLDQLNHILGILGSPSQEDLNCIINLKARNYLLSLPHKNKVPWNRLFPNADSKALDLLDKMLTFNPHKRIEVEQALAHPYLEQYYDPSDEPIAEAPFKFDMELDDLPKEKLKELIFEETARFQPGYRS
Outline: as §1

266 human kinases [6] = target: 266 human kinases (Homo sapiens, UniProt Q02750); details: MEK1(h); 100 μM
Outline: as §1

266 human kinases [7] = target: 266 human kinases (Homo sapiens, UniProt Q16539); details: SAPK2a(h); 100 μM
Sequence of 266 human kinases (Homo sapiens, UniProt Q16539) (Q16539 whole entry): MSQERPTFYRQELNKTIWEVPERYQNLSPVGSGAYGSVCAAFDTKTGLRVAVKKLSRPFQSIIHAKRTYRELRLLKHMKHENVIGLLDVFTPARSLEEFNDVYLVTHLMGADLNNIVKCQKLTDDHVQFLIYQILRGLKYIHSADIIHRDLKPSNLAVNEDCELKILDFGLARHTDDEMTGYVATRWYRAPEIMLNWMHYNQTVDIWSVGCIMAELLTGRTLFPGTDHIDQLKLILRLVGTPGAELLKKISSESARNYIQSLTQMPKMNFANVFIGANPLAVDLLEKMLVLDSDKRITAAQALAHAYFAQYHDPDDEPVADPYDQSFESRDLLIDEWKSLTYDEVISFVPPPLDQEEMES
Outline: as §1

266 human kinases [8] = target: T2, 266 human kinases (Homo sapiens, UniProt Q8IWQ3); details: BrSK2(h); 100 μM
T2 sequence (Q8IWQ3 1-736): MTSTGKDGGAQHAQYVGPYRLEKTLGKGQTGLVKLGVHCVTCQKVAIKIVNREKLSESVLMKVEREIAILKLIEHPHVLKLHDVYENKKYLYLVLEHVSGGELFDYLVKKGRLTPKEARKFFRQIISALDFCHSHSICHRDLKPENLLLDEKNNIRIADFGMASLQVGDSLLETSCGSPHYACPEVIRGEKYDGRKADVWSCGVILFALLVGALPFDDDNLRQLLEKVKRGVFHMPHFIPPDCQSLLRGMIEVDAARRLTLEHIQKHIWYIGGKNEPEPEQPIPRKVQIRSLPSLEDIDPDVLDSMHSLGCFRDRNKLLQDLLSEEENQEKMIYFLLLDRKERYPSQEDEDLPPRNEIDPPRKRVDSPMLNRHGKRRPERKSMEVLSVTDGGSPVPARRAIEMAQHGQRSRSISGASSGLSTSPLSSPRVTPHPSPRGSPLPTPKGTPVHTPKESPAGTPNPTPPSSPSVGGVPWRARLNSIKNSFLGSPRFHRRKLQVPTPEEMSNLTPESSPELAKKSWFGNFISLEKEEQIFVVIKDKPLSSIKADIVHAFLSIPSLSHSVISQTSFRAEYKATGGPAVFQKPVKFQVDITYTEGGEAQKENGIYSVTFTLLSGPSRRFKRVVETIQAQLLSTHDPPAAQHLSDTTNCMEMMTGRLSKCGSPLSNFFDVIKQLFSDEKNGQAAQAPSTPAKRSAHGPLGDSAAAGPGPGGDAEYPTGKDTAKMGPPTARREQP
Outline: as §1

266 human kinases [9] = target: T3, 266 human kinases (Homo sapiens, UniProt Q9H2K8); details: TAO3(h); 100 μM
T3 sequence (Q9H2K8 1-898): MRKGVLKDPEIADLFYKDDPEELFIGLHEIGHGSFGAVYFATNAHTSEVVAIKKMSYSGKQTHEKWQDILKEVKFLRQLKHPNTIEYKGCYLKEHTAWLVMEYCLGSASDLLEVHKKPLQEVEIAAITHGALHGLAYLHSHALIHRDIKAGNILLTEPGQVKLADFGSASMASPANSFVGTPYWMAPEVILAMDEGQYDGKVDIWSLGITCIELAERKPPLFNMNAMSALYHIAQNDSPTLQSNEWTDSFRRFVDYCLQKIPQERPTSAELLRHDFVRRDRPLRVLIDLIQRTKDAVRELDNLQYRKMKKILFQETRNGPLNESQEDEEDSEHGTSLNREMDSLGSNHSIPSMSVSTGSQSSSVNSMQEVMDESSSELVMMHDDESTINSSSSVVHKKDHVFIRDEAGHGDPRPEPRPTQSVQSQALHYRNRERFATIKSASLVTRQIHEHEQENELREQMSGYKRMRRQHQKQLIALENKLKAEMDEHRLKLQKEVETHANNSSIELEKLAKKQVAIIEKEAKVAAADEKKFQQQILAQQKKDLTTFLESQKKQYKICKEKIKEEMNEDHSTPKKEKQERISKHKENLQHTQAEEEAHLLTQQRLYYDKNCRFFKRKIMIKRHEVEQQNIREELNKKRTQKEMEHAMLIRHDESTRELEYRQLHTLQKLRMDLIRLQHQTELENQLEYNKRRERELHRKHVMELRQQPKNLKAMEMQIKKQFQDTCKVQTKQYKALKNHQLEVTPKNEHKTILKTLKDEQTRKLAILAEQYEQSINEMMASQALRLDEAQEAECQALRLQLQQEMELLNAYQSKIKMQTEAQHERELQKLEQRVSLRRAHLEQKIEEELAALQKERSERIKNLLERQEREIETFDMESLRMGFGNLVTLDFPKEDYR
Outline: as §1

266 human kinases [10] = target: 266 human kinases (Homo sapiens, UniProt O43318); details: TAK1(h); 100 μM
Sequence of 266 human kinases (Homo sapiens, UniProt O43318) (O43318 whole entry): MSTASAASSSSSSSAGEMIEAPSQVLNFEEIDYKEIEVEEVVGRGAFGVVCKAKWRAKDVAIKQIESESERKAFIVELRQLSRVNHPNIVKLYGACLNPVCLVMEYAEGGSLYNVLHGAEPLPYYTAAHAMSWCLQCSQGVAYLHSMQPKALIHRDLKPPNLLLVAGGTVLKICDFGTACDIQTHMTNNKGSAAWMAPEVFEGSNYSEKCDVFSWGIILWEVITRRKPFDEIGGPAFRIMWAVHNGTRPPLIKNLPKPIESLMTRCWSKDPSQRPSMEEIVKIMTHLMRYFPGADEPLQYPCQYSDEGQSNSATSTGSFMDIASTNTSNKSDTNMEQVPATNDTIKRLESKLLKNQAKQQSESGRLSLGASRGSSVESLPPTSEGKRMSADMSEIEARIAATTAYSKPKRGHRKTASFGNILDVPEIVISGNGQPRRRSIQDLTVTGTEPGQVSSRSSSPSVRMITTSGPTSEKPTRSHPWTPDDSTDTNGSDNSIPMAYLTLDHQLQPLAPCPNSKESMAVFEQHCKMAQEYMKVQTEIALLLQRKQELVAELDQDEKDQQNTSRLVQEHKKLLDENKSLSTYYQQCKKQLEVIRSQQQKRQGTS
Outline: as §1

266 human kinases [11] = target: 266 human kinases (Homo sapiens, UniProt P53350); details: Plk1(h); 100 μM
Sequence of 266 human kinases (Homo sapiens, UniProt P53350) (P53350 whole entry): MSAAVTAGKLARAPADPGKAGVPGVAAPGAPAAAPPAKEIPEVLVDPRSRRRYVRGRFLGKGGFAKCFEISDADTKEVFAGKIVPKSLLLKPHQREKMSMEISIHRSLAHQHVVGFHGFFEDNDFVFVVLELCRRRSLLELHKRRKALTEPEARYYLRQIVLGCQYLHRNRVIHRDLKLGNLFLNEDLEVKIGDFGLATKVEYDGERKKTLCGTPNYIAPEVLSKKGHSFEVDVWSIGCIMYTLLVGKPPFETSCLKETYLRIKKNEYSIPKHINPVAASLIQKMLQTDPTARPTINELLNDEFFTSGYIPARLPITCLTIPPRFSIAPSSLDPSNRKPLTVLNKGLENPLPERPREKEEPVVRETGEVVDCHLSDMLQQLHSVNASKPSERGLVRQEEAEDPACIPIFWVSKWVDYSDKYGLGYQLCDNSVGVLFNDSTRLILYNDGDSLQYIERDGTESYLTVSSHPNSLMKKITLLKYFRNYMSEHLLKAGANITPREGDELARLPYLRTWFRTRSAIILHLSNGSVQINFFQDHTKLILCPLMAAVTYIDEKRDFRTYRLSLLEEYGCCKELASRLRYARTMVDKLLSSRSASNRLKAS
Outline: as §1

266 human kinases [12] = target: 266 human kinases (Homo sapiens, UniProt Q9Y6M4); details: CK1γ3(h); 100 μM
Sequence of 266 human kinases (Homo sapiens, UniProt Q9Y6M4) (Q9Y6M4 whole entry): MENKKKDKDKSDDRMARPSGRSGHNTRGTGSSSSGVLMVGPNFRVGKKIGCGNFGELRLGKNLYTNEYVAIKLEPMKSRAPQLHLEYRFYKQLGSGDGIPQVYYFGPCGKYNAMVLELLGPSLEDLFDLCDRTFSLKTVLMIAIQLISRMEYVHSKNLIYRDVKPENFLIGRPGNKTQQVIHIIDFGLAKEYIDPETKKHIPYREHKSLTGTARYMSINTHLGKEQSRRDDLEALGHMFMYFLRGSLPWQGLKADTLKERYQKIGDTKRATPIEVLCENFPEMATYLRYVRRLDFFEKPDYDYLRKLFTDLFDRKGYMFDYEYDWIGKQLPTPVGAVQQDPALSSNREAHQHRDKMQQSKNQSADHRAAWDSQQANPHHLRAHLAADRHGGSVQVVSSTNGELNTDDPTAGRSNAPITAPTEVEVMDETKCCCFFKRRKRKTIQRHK
Outline: as §1

Sequence	% activity (266 human kinases [1]) [%]	% activity (266 human kinases [2]) [%]	% activity (266 human kinases [3]) [%]	% activity (266 human kinases [4]) [%]	% activity (266 human kinases [5]) [%]	% activity (266 human kinases [6]) [%]	% activity (266 human kinases [7]) [%]	% activity (266 human kinases [8]) [%]	% activity (266 human kinases [9]) [%]	% activity (266 human kinases [10]) [%]	% activity (266 human kinases [11]) [%]	% activity (266 human kinases [12]) [%]
HRRIKAWLKKIKALARQLGVAA (mammal) [MMI-0500]	2	19	198	170	60	21	52	84	12			
YARAAARQARAKALNRQLGVA (mammal) [MMI-0200]										124	128	96
